{"source": "patent US20130149236A1", "about": "(MacroGenics, published 2013)", "key": {"[1]": {"target": "T1, soluble B7H3-4Ig (human, UniProt Q5ZPR3 29-466)", "T1 construct": "Soluble or immobilized 4Ig form; also called 4Ig-B7-H3", "T1 sequence": "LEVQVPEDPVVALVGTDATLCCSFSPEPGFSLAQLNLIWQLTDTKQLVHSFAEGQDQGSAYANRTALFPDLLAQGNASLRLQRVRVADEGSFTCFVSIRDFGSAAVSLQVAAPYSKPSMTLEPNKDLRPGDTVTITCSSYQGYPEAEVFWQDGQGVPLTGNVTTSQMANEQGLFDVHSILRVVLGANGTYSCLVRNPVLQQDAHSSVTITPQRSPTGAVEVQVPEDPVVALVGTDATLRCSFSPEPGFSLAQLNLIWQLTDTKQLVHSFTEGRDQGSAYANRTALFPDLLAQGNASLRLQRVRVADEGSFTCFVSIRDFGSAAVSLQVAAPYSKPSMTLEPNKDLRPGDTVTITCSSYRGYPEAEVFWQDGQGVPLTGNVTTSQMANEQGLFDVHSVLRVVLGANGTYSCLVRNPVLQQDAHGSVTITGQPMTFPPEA", "experiment": "Specificity"}, "[2]": {"target": "T2, soluble B7H3-2Ig (human, UniProt Q5ZPR3 29-466)", "T2 construct": "Soluble or immobilized 2Ig form; also called 2Ig-B7-H3; B7-H3 (2Ig form)", "T2 sequence": "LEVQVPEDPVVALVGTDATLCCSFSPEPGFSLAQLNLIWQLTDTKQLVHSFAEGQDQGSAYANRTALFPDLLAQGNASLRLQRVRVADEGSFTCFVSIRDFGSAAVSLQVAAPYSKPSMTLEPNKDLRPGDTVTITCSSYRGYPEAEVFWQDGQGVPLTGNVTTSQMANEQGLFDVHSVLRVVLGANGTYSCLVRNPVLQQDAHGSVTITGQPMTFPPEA", "experiment": "Specificity"}}}
{"binder": "PRCA157 (antibody, IgG1, V domains shown, murine mAb, IgG1/k) VH: EVQQVESGGDLVKPGGSLKLSCAASGFTFSSYGMSWVRQTPDKRLEWVATINSGGSNTYYPDSLKGRFTISRDNAKNTLYLQMRSLKSEDTAMYYCARHDGGAMDYWGQGTSVTVSS VL: DIQMTQSPASLSVSVGETVTITCRASESIYSYLAWYQQKQGKSPQLLVYNTKTLPEGVPSRFSGSGSGTQFSLKINSLQPEDFGRYYCQHHYGTPPWTFGGGTNLEIK", "values": [{"measurement": "binding result", "setting": "[1]", "result": "binds"}, {"measurement": "binding result", "setting": "[2]", "result": "binds"}]}
{"binder": "BRCA84D (antibody, IgG1, V domains shown, murine mAb, IgG1/k; fluorescein-labeled in the FACS MFI columns) VH: DVQLVESGGGLVQPGGSRKLSCAASGFTFSSFGMHWVRQAPEKGLEWVAYISSDSSAIYYADTVKGRFTISRDNPKNTLFLQMTSLRSEDTAMYYCGRGRENIYYGSRLDYWGQGTTLTVSS VL: DIAMTQSQKFMSTSVGDRVSVTCKASQNVDTNVAWYQQKPGQSPKALIYSASYRYSGVPDRFTGSGSGTDFTLTINNVQSEDLAEYFCQQYNNYPFTFGSGTKLEIK", "values": [{"measurement": "binding result", "setting": "[1]", "result": "binds"}, {"measurement": "binding result", "setting": "[2]", "result": "binds"}]}
